± gives the uncertainty stated by the source.
Test: self-splicing fitness, log relative to wild type (ln ratio); higher = more splicing; Tetrahymena group I intron in knt gene, E. coli kanamycin selection, DiMSum; sequences stand for … in CUCUCU…GGAGGGAAAAGUUAUCAGGCAUGCACCUGGUAGCUAGUCUUUAAACCAAUAGAUUGCAUCGGUUUAAAAGGCAAGACCGUCAAAUUGCGGGAAAGGGGUCAACAGCCGUUCAGUACCAAGUCUCAGGGGAAACUUUGAGAUGGCCUUGCAAAGGGUAUGGUAAUAAGCUGACGGACAUGGUCCUAACCACGCAGCCAAGUCCUAAGUCAACAGAUCUUCUGUUGAUAUGGAUGCAGUUCACAGACUAAAUGUCGGUCGGGGAAGAUGUAUUCUUCUCAUAAGAUAUAGUCGGACCUCUCCUUAAUGGGAGCUAGCGGAUGAAGUGAUGCAACACUGGAGCCGCUGGGAACUAAUUUGUAUGCGAAAGUAUAUUGAUUAGUUUUGGAGUACUCGUGGUCG
Outline: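 Fitness was computed with DiMSum as the error-weighted combination of replicate fold changes, kanamycin versus none, each normalised to wild type. The library randomised all eight intron nucleotides of the P1ex region, with the intron placed in the knt kanamycin-resistance gene on pET-22b(+) in E. coli BL21(DE3). Six replicate transformations were grown overnight at 37°C or 30°C on LB agar with or without 25 μg/mL kanamycin, plus 100 μg/mL carbenicillin, 50 μM IPTG and 0.2% rhamnose. Pooled colonies were amplicon-sequenced on an Illumina HiSeq 2500.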

Sequence | self-splicing fitness (ln) (30 °C) | self-splicing fitness (ln) (37 °C)
CUUCAGCAAUAUUACGGGCA | -3.21 ± 0.4 | -2.64 ± 0.27
CUUCAGCAAUAUUACGGUAC | -3.21 ± 0.35 | -2.02 ± 0.33
CUUCAGCAAUAUUACGGUAU | -3.47 ± 0.35 | -2 ± 0.2
CUUCAGCAAUAUUACGGUUU | -3.8 ± 0.15 | -2.55 ± 0.13
CUUCAGCAAUAUUACGUAUC | -4.15 ± 0.27 | -2.48 ± 0.23
CUUCAGCAAUAUUACGUCGC | -2.22 ± 0.36 | -2.3 ± 0.42
CUUCAGCAAUAUUACGUGAU | -3.65 ± 0.12 | -2.55 ± 0.12
CUUGAGCAAUAUUACGAACG | -0.921 ± 0.13 | 0.12 ± 0.18
CUUGAGCAAUAUUACGAAGG | -1.97 ± 0.2 | –
CUUGAGCAAUAUUACGAAUU | -3.53 ± 0.33 | -3.19 ± 0.47
CUUGAGCAAUAUUACGACGA | -2.83 ± 0.42 | -2.51 ± 0.45
CUUGAGCAAUAUUACGACGU | -3.62 ± 0.35 | -2.25 ± 0.21
CUUGAGCAAUAUUACGAGCC | -1.39 ± 0.33 | –
CUUGAGCAAUAUUACGCAUU | – | -2.02 ± 0.35
CUUGAGCAAUAUUACGCCAC | -2.82 ± 0.49 | –
CUUGAGCAAUAUUACGCCUA | – | -3.13 ± 0.44
CUUGAGCAAUAUUACGCGCA | -2.81 ± 0.27 | -2.23 ± 0.33
CUUGAGCAAUAUUACGCGCU | -2.45 ± 0.29 | -1.22 ± 0.39
CUUGAGCAAUAUUACGGAGC | – | -1.42 ± 0.29
CUUGAGCAAUAUUACGGAGG | -2.13 ± 0.19 | -1.67 ± 0.16
CUUGAGCAAUAUUACGGAUG | -1.75 ± 0.11 | -0.176 ± 0.11
CUUGAGCAAUAUUACGGCAG | -1.01 ± 0.11 | -0.0287 ± 0.15
CUUGAGCAAUAUUACGGCCU | -3.92 ± 0.37 | –
CUUGAGCAAUAUUACGGCGC | -3.72 ± 0.43 | -1.55 ± 0.41
CUUGAGCAAUAUUACGGCGG | -1.13 ± 0.1 | -0.746 ± 0.14

Sequence | self-splicing fitness (ln) (30 °C) | self-splicing fitness (ln) (37 °C)
CUUGAGCAAUAUUACGGUCA | -1.65 ± 0.18 | -3.58 ± 0.46
CUUGAGCAAUAUUACGUAUA | -3.5 ± 0.2 | -2.96 ± 0.28
CUUGAGCAAUAUUACGUAUC | -3.35 ± 0.19 | -3.22 ± 0.33
CUUGAGCAAUAUUACGUCUA | -2.76 ± 0.46 | –
CUUUAGCAAUAUUACGAAGG | -1.23 ± 0.11 | -1.85 ± 0.21
CUUUAGCAAUAUUACGACUA | – | -1.32 ± 0.42
CUUUAGCAAUAUUACGACUG | -0.867 ± 0.094 | 0.418 ± 0.15
CUUUAGCAAUAUUACGAGAG | -4.26 ± 0.34 | -2.03 ± 0.28
CUUUAGCAAUAUUACGAUAA | -2.76 ± 0.15 | -2.64 ± 0.28
CUUUAGCAAUAUUACGAUGA | -3.2 ± 0.25 | -2.01 ± 0.18
CUUUAGCAAUAUUACGAUGC | -2.95 ± 0.24 | –
CUUUAGCAAUAUUACGCACU | -3.69 ± 0.44 | -1.83 ± 0.19
CUUUAGCAAUAUUACGCCCA | -2.92 ± 0.48 | -1.54 ± 0.38
CUUUAGCAAUAUUACGCUUG | -2.98 ± 0.16 | -2.32 ± 0.17
CUUUAGCAAUAUUACGGCAU | -3.42 ± 0.39 | -2.9 ± 0.4
CUUUAGCAAUAUUACGGCCC | -1.71 ± 0.47 | –
CUUUAGCAAUAUUACGGCGG | -0.763 ± 0.093 | -0.528 ± 0.12
CUUUAGCAAUAUUACGGCUC | – | -2.16 ± 0.46
CUUUAGCAAUAUUACGGCUG | -1.48 ± 0.14 | -0.483 ± 0.14
CUUUAGCAAUAUUACGGGAA | -2.28 ± 0.22 | -1.58 ± 0.3
CUUUAGCAAUAUUACGGGCG | -0.935 ± 0.12 | 0.00294 ± 0.15
CUUUAGCAAUAUUACGGGGA | -2.88 ± 0.19 | -1.38 ± 0.17
CUUUAGCAAUAUUACGUACU | -2.22 ± 0.23 | -2.82 ± 0.34
CUUUAGCAAUAUUACGUGCU | – | -2.59 ± 0.41
CUUUAGCAAUAUUACGUUGG | -3.1 ± 0.24 | -1.86 ± 0.27

Sequence | self-splicing fitness (ln) (30 °C) | self-splicing fitness (ln) (37 °C)
GAAAAGCAAUAUUACGAAAA | -2.25 ± 0.22 | -2.42 ± 0.17
GAAAAGCAAUAUUACGAACA | -0.893 ± 0.1 | 0.0828 ± 0.12
GAAAAGCAAUAUUACGAACC | -0.664 ± 0.14 | -0.705 ± 0.18
GAAAAGCAAUAUUACGACAA | -0.627 ± 0.084 | -0.496 ± 0.096
GAAAAGCAAUAUUACGAGCC | -1.38 ± 0.19 | -0.409 ± 0.18
GAAAAGCAAUAUUACGAGCG | -0.699 ± 0.14 | -0.579 ± 0.15
GAAAAGCAAUAUUACGAGGA | -2.03 ± 0.15 | -1.78 ± 0.16
GAAAAGCAAUAUUACGAGGG | – | -1.77 ± 0.25
GAAAAGCAAUAUUACGAGUG | -1.08 ± 0.073 | -0.813 ± 0.094
GAAAAGCAAUAUUACGAUCA | -0.39 ± 0.067 | -0.234 ± 0.072
GAAAAGCAAUAUUACGAUGU | -1.07 ± 0.084 | -0.404 ± 0.096
GAAAAGCAAUAUUACGCAUC | -3.17 ± 0.17 | -2.78 ± 0.18
GAAAAGCAAUAUUACGCCAA | -2.24 ± 0.12 | -1.36 ± 0.12
GAAAAGCAAUAUUACGCCUU | -0.813 ± 0.11 | -0.558 ± 0.13
GAAAAGCAAUAUUACGCUAA | -2.24 ± 0.16 | -1.1 ± 0.13
GAAAAGCAAUAUUACGGCAU | -0.258 ± 0.066 | 0.329 ± 0.083
GAAAAGCAAUAUUACGGUUU | -0.79 ± 0.057 | -0.332 ± 0.076
GAAAAGCAAUAUUACGUAAU | -1.78 ± 0.066 | -1.47 ± 0.087
GAAAAGCAAUAUUACGUACU | -0.864 ± 0.069 | -0.0522 ± 0.1
GAAAAGCAAUAUUACGUCCU | -0.216 ± 0.089 | 0.514 ± 0.12
GAAAAGCAAUAUUACGUGCC | -1.69 ± 0.19 | -0.25 ± 0.22
GAAAAGCAAUAUUACGUGCG | -1.44 ± 0.095 | 0.264 ± 0.12
GAAAAGCAAUAUUACGUUAU | -1.67 ± 0.07 | -0.868 ± 0.088
GAAAAGCAAUAUUACGUUGU | -4.51 ± 0.2 | -2.22 ± 0.12
GAACAGCAAUAUUACGAAAA | -1.77 ± 0.14 | -1.65 ± 0.12

Sequence | self-splicing fitness (ln) (30 °C) | self-splicing fitness (ln) (37 °C)
GAACAGCAAUAUUACGAAGG | -2.59 ± 0.17 | -3.26 ± 0.28
GAACAGCAAUAUUACGAAUG | -2.42 ± 0.092 | -1.52 ± 0.096
GAACAGCAAUAUUACGACCG | -1.25 ± 0.14 | -0.315 ± 0.17
GAACAGCAAUAUUACGACGC | -0.0786 ± 0.067 | 0.151 ± 0.088
GAACAGCAAUAUUACGAGAA | -3.45 ± 0.25 | -1.44 ± 0.17
GAACAGCAAUAUUACGAUCG | -0.614 ± 0.085 | -0.564 ± 0.11
GAACAGCAAUAUUACGAUCU | -1.33 ± 0.055 | -0.287 ± 0.078
GAACAGCAAUAUUACGAUUU | -0.342 ± 0.05 | -0.476 ± 0.064
GAACAGCAAUAUUACGCAAG | -3.31 ± 0.23 | -1.41 ± 0.17
GAACAGCAAUAUUACGCCAA | -1.94 ± 0.42 | -2.06 ± 0.32
GAACAGCAAUAUUACGCUAG | -1.69 ± 0.098 | -0.109 ± 0.092
GAACAGCAAUAUUACGCUUA | -1.2 ± 0.084 | -0.826 ± 0.099
GAACAGCAAUAUUACGGAGG | -3.02 ± 0.14 | -2.54 ± 0.2
GAACAGCAAUAUUACGGCAG | -2.31 ± 0.12 | -3.02 ± 0.24
GAACAGCAAUAUUACGGCUA | -0.474 ± 0.077 | -0.117 ± 0.084
GAACAGCAAUAUUACGGGGG | -2.08 ± 0.15 | -2.42 ± 0.2
GAACAGCAAUAUUACGGGUU | -2.91 ± 0.1 | -2.04 ± 0.11
GAACAGCAAUAUUACGUAGC | -0.75 ± 0.074 | -0.22 ± 0.1
GAACAGCAAUAUUACGUAUA | -0.835 ± 0.083 | -0.324 ± 0.1
GAACAGCAAUAUUACGUAUG | -1.02 ± 0.091 | -0.888 ± 0.12
GAACAGCAAUAUUACGUCAG | -2.51 ± 0.21 | -3.2 ± 0.36
GAACAGCAAUAUUACGUGCU | -2.89 ± 0.14 | -1.88 ± 0.14
GAACAGCAAUAUUACGUUAC | -2.53 ± 0.14 | -1.32 ± 0.16
GAAGAGCAAUAUUACGACAU | -2.22 ± 0.017 | -1.35 ± 0.035

Reference: the supplement of paper PMC7877785
